Assay results published in article PMC3751566.

Assays:
[1] = biological target: syntaxin4 (UniProt P70452); assay: Munc18c IP, syntaxin4 blot; settings: reference: wild type Munc18c (WT and R cells), insulin
[2] = biological target: syntaxin4 (UniProt P70452); assay: syntaxin4 IP, Munc18c blot (reciprocal); settings: reference: wild type Munc18c (WT and R cells), insulin

| Substance | binding against the reference ([1]; sites Y218,Y219) | binding against the reference ([2]; sites Y218,Y219) | binding against the reference ([1]; sites Y521) | binding against the reference ([2]; sites Y521) |
| --- | --- | --- | --- | --- |
| Munc18c (from UniProt Q60770) Y218/219F, insulin | stronger | stronger | – | – |
| Munc18c (from UniProt Q60770) Y521F, insulin | – | – | stronger | stronger |
